From paper PMC10879569, “Major cardiovascular events under biologic psoriasis therapies: a 19-year real-world analysis of FAERS data” (Frontiers in Immunology, 2024)

Assays:
psoriasis = conditions: in vivo; cited from earlier work
[1] = test system: patients with psoriasis indication; assay: FAERS disproportionality analysis (PRR and MGPS/EBGM) of MACEs reporting versus other psoriasis treatments; assay type: in vivo; conditions: compared among the biological classes
Text: FAERS collects […] of drug adverse events reports worldwide submitted by health professionals, consumers, and manufacturers. We chose the FAERS dataset as the data source for this study, and the analytical period was from January 2004 to December 2022. To enhance the reliability and validity of our results, only records submitted by professional health workers (e.g., physicians, pharmacists, and other health professionals) were included. To avoid potential confounders in causality assessments such as indication, the analysis was refined by retaining only reports with an expanded psoriasis indication. The raw FAERS data were cleaned, mapped, de-duplicated, and normalized by SQL server Data Mining.
The names are listed in Supplementary Table S1 .
Inclusion of reports was limited to only those cases where a biologic drug was identified as “the primary suspect” or”secondary suspect”. The control groups were comprised of the population who were indicated with psoriasis and receiving other psoriasis systemic therapies except biological agents. […]
This study is a case–non-case study. […] Disproportionality analysis (proportional reporting ratio, PRR) and MGPS were calculated to identify drug–event combinations with reporting rates higher than expected versus other drugs among patients with psoriasis indication. […]

[2] = test system: active psoriatic arthritis; conditions: in vivo; cited from earlier work
[3] = parameters: method as in PMID 22011907, PMID 21862748; conditions: 2011; cited from earlier work
[4] = in vivo; cited from earlier work

Q: With Ixekizumab as the substance, how does the “MACEs events reported in the treatment group” value (psoriasis) read?
A: Its value is “two”.

Q: With Ustekinumab as the substance, how does the “reporting rate for the four SMQs (myocardial infarction, stroke, cardiac fatality, death)” value [1] read?
A: The value was “highest reporting rate for all four SMQs”.

Q: With Secukinumab as the substance, how does the “MACEs reported in the treatment group” value [2] read?
A: Its value is “two”.

Q: For briakinumab, which “fate of clinical trials after reports of serious cardiovascular adverse events (e.g., myocardial infarction, cardiac death)” value [3] is on record?
A: Its value is “discontinued before marketing”.

Q: Which “MACEs reported in the treatment group” value [2] does the source give for Adalimumab here?
A: The value was “none”.

Q: For Risankizumab, which “cardiac disorders as share of serious adverse events suspected of being caused by the drug” value [4] is on record?
A: Its value is 10.9%.
